One molecule from patent US10052415B2, “Tropoelastin for promoting endothelial cell adhesion or migration” (University of Utah Research Foundation, priority 2005, dated 2018) can be followed below.

In assay [1] the test system is human embryonic kidney cells (HEK 293). In words: Cell adhesion assay on coated culture plates, HEK 293 cells. The assay is classed as cell-based. The conditions noted are these: culture plates coated with 10 ug/ml protein; 0.1% BSA control. How it is done:
(§1) Cells were plated on culture plates coated with either 0.1% BSA (as a control), 10 ug/ml fibronectin (FN), or 10 ug/ml recombinant tropoelastin, and assayed for adherence to the coated substrate.
96-well plates were coated in duplicate overnight at 4° C. with 10 μg/ml collagen, fibronectin, tropoelastin, or 0.1% bovine serum albumin (BSA). Cells were harvested with 0.25% trypsin/1 mM EDTA, washed three times in adhesion buffer (0.5% BSA in basal medium), suspended at a working density of 5×10^5/ml in adhesion buffer, and then allowed to recover for 1 h at 37° C. (5% CO2). For integrin-blocking assays, 25 μg/ml anti-integrin antibodies (Chemicon, Temecula, Calif.) or control IgG (Jackson ImmunoResearch Laboratories, Inc, West Grove, Pa.) were added to the cell suspension during the recovery period. During the cell recovery, the coated 96-well plates were washed twice in dPBS and blocked for 1 h at 25° C. in 5.0% BSA (dPBS). The blocking solution was removed, and the wells were washed twice in dPBS. Recovered cells were added to the coated wells in a volume of 100 μl per well and placed at 37° C. for 30 minutes (5% CO2). […] Readings represent the number of adherent cells/well (average six high powered 100× fields, three taken from each of two separate wells).

Assay [2] has as its system endothelial progenitor cells. The assay is described as follows: Adhesion assay on coated stainless steel disks, endothelial progenitor cells. The assay is classed as cell-based, human. Here is the method:
We conducted experiments to assess whether tropoelastin promoted the adhesion of endothelial progenitor cells. Tropoelastin was covalently conjugated to a stainless steel disk approximately 6 mm in diameter. As a control, anti-CD34 antibody (known to promote endothelial cell adhesion) was covalently conjugated to similar stainless steel disks. Endothelial progenitor cells were cultured with these coated disks, and adhesion of the cells to the coated disks was assayed.
Adhesion assays on 6 mm stainless steel disks (Orbus Medical Technologies, Ft Lauderdale, Fla.) pre-coated with anti-CD34 antibody, tropoelastin, coating vehicle, or uncoated metal were performed in a similar fashion as described above, with the following modifications: 48-well plates were used to hold the disks during the assay period to facilitate manipulation of the disks and twice the volume of cell suspension was applied (200 μl/well). Exemplary amounts of total protein covalently attached to each disk were approximately 100 micrograms. Post-adhesion, the wells were washed twice in dPBS, using a swirling motion to dislodge non-specifically adhered cells. […]

Assay [3] concerns human aortic endothelial cells (HuAEC). The assay is described as follows: Boyden chamber migration assay, HuAEC. The conditions noted are these: FIG. 3. The assay is classed as cell-based. Here is the method:
Migration of HuAECs to BSA, fibronectin, and recombinant tropoelastin was measured.
We assayed the hexamer VGVAPG (SEQ ID No. 5). This hexameric sequence is repeated multiple times within the full length tropoelastin protein. […] We additionally assayed a 17 residue C-terminal fragment of the tropoelastin protein. This 17 amino acid residue is depicted in SEQ ID NO: 6 (IFPGGACLGKACGRKRK).
Briefly, 16 h before the assay, 70% confluent 75 cm^2 flasks of human melanoma A2058 cell (ATCC, passage 3-12) or human aortic endothelial cells (HAEC; Cambrex, passage 4-7) were kept in basal media (dMEM+0.1% BSA, or EBM-2+1% FCS, respectively). Cells were lifted with 0.25% Trypsin/1 mM EDTA, diluted in 0.5% BSA (dMEM) and washed 3 times in basal media (dMEM+0.1% BSA) or (EBM-2+0.1% FCS,) and recovered in suspension at working density (2×10^6/ml for A2058 or 1.5×10^6 HAEC) for 1 h at 37° C. (5% CO2). For migration-inhibition assays, the cells were preincubated during the recovery period for 30 minutes in 25 μg/ml anti-integrin antibodies (Chemicon, Temecula, Calif.) or control IgG (Jackson ImmunoResearch, Inc.). All migration assays were performed in triplicate in a 48-well Boyden chamber apparatus (NeuroProbe, Cabin John, Md.). The recovered cells were added to the bottom chambers in a volume of 30 μl. The wells were overlayed with an 8 μm-pore polycarbonate membrane (NeuroProbe, Cabin John, Md.) and coated with 100 μg/ml Rat tail collagen (Trevigen, Gaithersburg, Md.) for A2058 cells or acetylated 1% gelatin from porcine skin (Sigma, St. Louis, Mo.) for HAEC. The apparatus was assembled and stored inverted at 37° C. (5 CO2) for a 2 h adhesion-period. The apparatus was re-inverted and 52 μl of the chemoattractants, 10 mg/ml Fibronectin, 200 ng/ml Tropoelastin, 10 μM elastin-derived peptides; VGVAPG (SEQ ID No. 5), and IFPGGACLGKACGRKRK (SEQ ID No. 6 (Cterm peptide) or 0.1% BSA/dMEM (diluent, random migration control), were added to the upper chambers and the migration was allowed to proceed for 2 h in a humidified incubator at 37° C. (5% CO2). The membranes were then removed, fixed in methanol, stained with a Hema 3 stain set (Fisher Scientific, Pittsburgh, Pa.) and mounted migrated-side down to a 50×75 mm glass slide. Before 90% mounting medium (in xylenes) was applied, the non-migrated cells were removed from the exposed, non-migrated face of the membrane with a moistened swab. Readings represent the number of cells migrating through the membrane (the sum of two high power X 20 fields/well, averaged for each sextuplicate-well set).

For assay [4] the test system is unchanged. In words: Cell adhesion assay on coated culture plates, HuAEC. The format is cell-based. How it is done: as §1
96-well plates were coated in duplicate overnight at 4° C. with 10 μg/ml collagen, fibronectin, tropoelastin, or 0.1% bovine serum albumin (BSA). Cells were harvested with 0.25% trypsin/1 mM EDTA, washed three times in adhesion buffer (0.5% BSA in basal medium), suspended at a working density of 5×10^5/ml in adhesion buffer, and then allowed to recover for 1 h at 37° C. (5% CO2). For integrin-blocking assays, 25 μg/ml anti-integrin antibodies (Chemicon, Temecula, Calif.) or control IgG (Jackson ImmunoResearch Laboratories, Inc, West Grove, Pa.) were added to the cell suspension during the recovery period. During the cell recovery, the coated 96-well plates were washed twice in dPBS and blocked for 1 h at 25° C. in 5.0% BSA (dPBS). The blocking solution was removed, and the wells were washed twice in dPBS. Recovered cells were added to the coated wells in a volume of 100 μl per well and placed at 37° C. for 30 minutes (5% CO2). Following this incubation, the assay plate was inverted and assay wells were washed twice with 100 μl dPBS to remove non-specifically adhered cells. The wells were then fixed in Zamboni fixative, stained with Gill 1 hematoxylin, and overlayed with 80% glycerol. The assay was imaged at 100× magnification, capturing 3 random fields/well on a Zeiss Axiovert 200 inverted microscope equipped with a Zeiss Axiocam digital camera. Readings represent the number of adherent cells/well (average six high powered 100× fields, three taken from each of two separate wells).

B1: tropoelastin: recombinant human tropoelastin lacking native signal sequence, 10× His tag and Factor Xa site on N-terminus, 706 amino acid residues (SEQ ID NO: 4) (protein, listed as Homo sapiens)
chain: MGHHHHHHHHHHSSGGIEGRGGVPGAIPGGVPGGVFYPGAGLGALGGGALGPGGKPLKPVPGGLAGAGLGAGLGAFPAVTFPGALVPGGVADAAAAYKAAKAGAGLGGVPGVGGLGVSAGAVVPQPGAGVKPGKVPGVGLPGVYPGGVLPGARFPGVGVLPGVPTGAGVKPKAPGVGGAFAGIPGVGPFGGPQPGVPLGYPIKAPKLPGGYGLPYTTGKLPYGYGPGGVAGAAGKAGYPTGTGVGPQAAAAAAAKAAAKFGAGAAGVLPGVGGAGVPGVPGAIPGIGGIAGVGTPAAAAAAAAAAKAAKYGAAAGLVPGGPGFGPGVVGVPGAGVPGVGVPGAGIPVVPGAGIPGAAVPGVVSPEAAAKAAAKAAKYGARPGVGVGGIPTYGVGAGGFPGFGVGVGGIPGVAGVPGVGGVPGVGGVPGVGISPEAQAAAAAKAAKYGVGTPAAAAAKAAAKAAQFALLNLAGLVPGVGVAPGVGVAPGVGVAPGVGLAPGVGVAPGVGVAPGVGVAPGIGPGGVAAAAKSAAKVAAKAQLRAAAGLGAGIPGLGVGVGVPGLGVGAGVPGLGVGAGVPGFGAVPGALAAAKAAKYGAAVPGVLGGLGALGGVGIPGGVVGAGPAAAAAAAKAAAKAAQFGLVGAAGLGGLGVGGLGVPGVGGLGGIPPAAAAKAAKYGVAARPGFGLSPIFPGGACLGKACGRKRK
For the molecule B1, the “adhesion of HEK 293 cells to the coated substrate” value in assay [1] is reported as “do not adhere to tropoelastin”. In addition, the “adhesion of endothelial progenitor cells to coated stainless steel disks” value in assay [2] (FIG. 7, protein covalently conjugated to 6 mm disk) is listed as “promoted adhesion of human endothelial cells to the metal device”. The “cell adhesion compared to polysaccharide-coated control disks or to bare metal disks” value in assay [2] (coated metal disks) is recorded as “significant increase in cell adhesion”. For the same molecule, the “level of HuAEC migration relative to comparator” value in assay [3] is reported as “comparable to that of fibronectin”. The “migration of HuAECs” value in assay [3] (200 ng/ml Tropoelastin, 10 μM peptides, BSA control) is on record as “promoted endothelial cell migration”. Besides, in assay [4] (FIG. 2, coated wells), the “HuAEC adhesion, number of cells bound/well, relative to other coats” value is listed as “comparable to that observed with fibronectin or collagen”. Besides, the “adhesion of HuAEC to the coated substrate” value in assay [4] (culture plates coated with 10 ug/ml protein, 0.1% BSA control) is recorded as “adhered to tropoelastin”.
